Assay results from article doi:10.1101/765990 (bioRxiv, 2019).

Biological target: T1, Sed5p Habc domain (amino acids 1-210) (budding yeast, UniProt Q01590 1-210)
T1 sequence: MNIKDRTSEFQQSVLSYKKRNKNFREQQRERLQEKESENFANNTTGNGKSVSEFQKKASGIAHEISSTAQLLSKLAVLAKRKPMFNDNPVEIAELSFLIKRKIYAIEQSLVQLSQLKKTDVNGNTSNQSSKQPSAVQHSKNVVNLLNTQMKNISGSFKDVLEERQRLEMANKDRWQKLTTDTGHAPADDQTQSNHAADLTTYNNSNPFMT
Test: native gel or EMSA

binding result: binds
B1: Sed5p SNARE-motif (amino acids 211-320), wild type (domain or fragment)
chain: SLLDESSEKNNNSSNQGELSFPQNDSQLMLMEEGQLSNNVYLQERNRAVETIESTIQEVGNLFQQLASMVQEQGEVIQRIDANVDDIDLNISGAQRELLKYFDRIKSNRW
